Changes are numbered by the printed parent chain. Names may count otherwise.
T1: FcγRIIa type H (human, UniProt P12318 36-217)
T1 construct: also called FcγRIIaH; FcγRIIH
T1 sequence: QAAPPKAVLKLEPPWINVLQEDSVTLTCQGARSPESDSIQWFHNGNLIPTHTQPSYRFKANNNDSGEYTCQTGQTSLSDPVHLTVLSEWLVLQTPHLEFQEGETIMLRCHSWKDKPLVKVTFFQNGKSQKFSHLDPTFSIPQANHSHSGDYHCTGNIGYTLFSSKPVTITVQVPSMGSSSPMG

T2: FcγRIIb (human, UniProt P31994 43-217, limits assumed)
T2 construct: also called FcgRIIb; FcγIIB
T2 sequence: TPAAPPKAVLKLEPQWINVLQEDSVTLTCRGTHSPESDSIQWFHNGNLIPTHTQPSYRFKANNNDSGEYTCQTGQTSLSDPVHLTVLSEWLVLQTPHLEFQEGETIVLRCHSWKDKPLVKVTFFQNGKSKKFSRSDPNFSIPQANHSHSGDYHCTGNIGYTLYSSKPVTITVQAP

T3: FcγRIIb (human, UniProt P31994 43-217, limits assumed)
T3 construct: SPR analyte; also called FcγIIB; CD32
T3 sequence: T2 sequence

T4: FcγRIIa type R (human, UniProt P12318 36-217)
T4 construct: SPR analyte; also called FcγRIIaR; FcγRIIa(R)
T4 chain: T1 sequence with H133R

T5: FcγRIIa type H (human, UniProt P12318 36-217)
T5 construct: SPR analyte; also called FcγRIIaH
T5 sequence: T1 sequence

T6: human FcγRIIa(R) (human, UniProt P12318 36-217)
T6 construct: also called hFcgRIIa(R); FcγRIIa type R
T6 chain: T1 sequence with H133R

T7: human FcγRIIa(H) (human, UniProt P12318 36-217)
T7 construct: also called hFcgRIIa(H); FcγRIIa type H
T7 sequence: T1 sequence

B1: IL6R-BP121/IL6R-L (antibody, human IgG1)
heavy: QVQLQESGPGLVKPSETLSLTCAVSGHSISHDHAWSWVRQPPGEGLEWIGFISYSGITNYNPSLQGRVTISRDNSKNTLYLQMNSLRAEDTAVYYCARSLARTTAMDYWGEGTLVTVSSASTKGPSVFPLAPSSKSTSGGTAALGCLVKDYFPEPVTVSWNSGALTSGVHTFPAVLQSSGLYSLSSVVTVPSSSLGTQTYICNVNHKPSNTKVDKKVEPKSCDKTHTCPPCPAPELLGGDSVFLFPPKPKDTLMISRTPEVTCVVVDVSHEDPEVKFNWYVDGVEVHNAKTKPREEQYNSTYRVVSVLTVLHQDWLNGKEYKCKVSNQALPAPIEKTISKAKGQPREPQVYTLPPSRDELTKNQVSLTCLVKGFYPSDIAVEWESNGQPENNYKTTPPVLDSDGSFFLYSKLTVDKSRWQQGNVFSCSVMHEALHNHYTQESLSLSP
light: DIQMTQSPSSLSASVGDRVTITCRASQDISSYLNWYQQKPGKAPKLLIYYTSRLHSGVPSRFSGSGSGTDFTFTISSLQPEDIATYYCQQGNTLPYTFGQGTKVEIK
notes: IgG1; Fc variant of IL6R-B3; copies: 2 + 2
B2: IL6R-2B169/IL6R-L (antibody, human IgG1)
heavy: B1 heavy with V325I, Q328K
light: B1 light
notes: as for B1
B3: IL6R-BP912/IL6R-L (antibody, human IgG1)
heavy: B1 heavy with Q328K, A332R
light: B1 light
notes: as for B1
B4: IL6R-BP110/IL6R-L (antibody, human IgG1)
heavy: B1 heavy with H270N, Q328K
light: B1 light
notes: as for B1
B5: IL6R-2B128/IL6R-L (antibody, human IgG1)
heavy: B1 heavy with Y298D, Q328K
light: B1 light
notes: as for B1
B6: IL6R-BF648/IL6R-L (antibody, human IgG1)
heavy: not shown
light: B1 light
B7: IL6R-BP178/IL6R-L (antibody, human IgG1)
heavy: B1 heavy with E235D, G239D, P273G, Q328K, A332K
light: B1 light
B8: IL6R-BP086/IL6R-L (antibody, human IgG1)
heavy: B1 heavy with Q328A, A332K
light: B1 light
B9: IL6R-BP180/IL6R-L (antibody, human IgG1)
heavy: B1 heavy with G239D, P273G, Q328K, A332K
light: B1 light
B10: IL6R-BP087/IL6R-L (antibody, human IgG1)
heavy: B1 heavy with L236Y, Q328K, A332K
light: B1 light
B11: IL6R-BP152/IL6R-L (antibody, human IgG1)
heavy: B1 heavy with E235D, L236Y, G239D, Y298D, Q328A, A332R
light: B1 light
B12: antibody with VH3-IgG1-F1324 heavy chain and L(WT)-CK light chain (antibody)
heavy: B1 heavy with L236A, L237A, D240P, M254Y, Q328K, N436Y, Y438V, E441K
light: not shown
notes: L234A/L235A on VH3-IgG1-F890; copies: 2 + 2

The binders below were run against T8, FcγRIa (human, UniProt P12314 16-292, limits assumed) (assay: SPR (Biacore), FcγR over captured antibody).
T8 construct: also called FcgRIa; CD64
T8 sequence (P12314 16-292 limits assumed): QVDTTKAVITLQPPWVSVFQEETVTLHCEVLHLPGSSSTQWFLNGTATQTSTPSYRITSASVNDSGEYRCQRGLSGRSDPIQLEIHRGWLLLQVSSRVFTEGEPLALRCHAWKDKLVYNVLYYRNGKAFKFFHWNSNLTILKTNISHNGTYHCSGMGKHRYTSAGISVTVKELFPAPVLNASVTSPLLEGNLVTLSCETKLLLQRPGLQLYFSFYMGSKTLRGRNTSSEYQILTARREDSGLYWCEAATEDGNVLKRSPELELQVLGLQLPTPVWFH

| Kd | Binder |
| --- | --- |
| 0.011 µM | B1 |
| 0.025 µM | B2 |
| 0.038 µM | B3 |
| 0.0073 µM | B4 |
| 0.013 µM | B5 |

The binders below were run against T1, FcγRIIa type H (assay: SPR (Biacore), FcγR over captured antibody).

| Kd | Binder |
| --- | --- |
| 44 µM | B1 |
| 48 µM | B2 |
| 38 µM | B3 |
| 47 µM | B4 |
| 34 µM | B5 |

These binders were tested against T2, FcγRIIb (assay: SPR (Biacore), FcγR over captured antibody).

| Kd | Binder |
| --- | --- |
| 1.1 µM | B1 |
| 1.2 µM | B2 |
| 1.5 µM | B3 |
| 1.5 µM | B4 |
| 1.4 µM | B5 |

The binders below were run against T9, FcγRIIIa type V (human, UniProt P08637 17-208, limits assumed) (assay: SPR (Biacore), FcγR over captured antibody).
T9 construct: also called FcγRIIIaV; FcgRIIIaV
T9 sequence (P08637 other isoform, or with tags, fused parts or gaps limits assumed): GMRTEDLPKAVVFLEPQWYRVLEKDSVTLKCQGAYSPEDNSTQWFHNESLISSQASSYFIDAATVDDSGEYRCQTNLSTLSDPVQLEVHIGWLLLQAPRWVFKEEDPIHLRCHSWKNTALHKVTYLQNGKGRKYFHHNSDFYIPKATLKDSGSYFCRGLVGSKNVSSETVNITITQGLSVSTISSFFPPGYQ

| Kd | Binder |
| --- | --- |
| 52 µM | B1 |
| 75 µM | B2 |
| 78 µM | B3 |
| 64 µM | B4 |
| 72 µM | B5 |

The binders below were run against T3, FcγRIIb (assay: ratio of SPR KDs; reference IL6R-B3/IL6R-L).
From the text: (§1) Furthermore, KD(IIaR)/KD(IIb) and KD(IIaH)/KD(IIb) in the table respectively represent the value obtained by dividing the KD value of each variant for FcγRIIaR by the KD value of each variant for FcγRIIb, and the value obtained by dividing the KD value of each variant for FcγRIIaH by the KD value of each variant for FcγRIIb. KD(IIb) of the parent polypeptide/KD(IIb) of the altered polypeptide refers to the value obtained by dividing the KD value of the parent polypeptide for FcγRIIb by the KD value of each variant for FcγRIIb.

| KD(IIb) of the parent polypeptide/KD(IIb) of altered polypeptide | Binder |
| --- | --- |
| 2.5 | B6 |
| 60.1 | B7 |
| 5.4 | B8 |
| 49.9 | B9 |
| 5.1 | B10 |
| 75 | B11 |

The binders below were run against T10, FcγRIa (human, UniProt P12314 16-292, limits assumed) (assay: SPR (Biacore), antibody captured, FcγR analyte).
T10 construct: SPR analyte; also called CD64
T10 sequence (P12314 16-292 limits assumed): as the sequence (P12314 16-292 limits assumed) above
From the text: as §1

| Kd | Binder |
| --- | --- |
| 0.011 µM | B6 |
| 0.043 µM | B7 |
| 0.027 µM | B8 |
| 0.038 µM | B10 |
| 0.073 µM | B11 |

Target: T4, FcγRIIa type R
Assay: SPR (Biacore), antibody captured, FcγR analyte
From the text: as §1

| Kd | Binder |
| --- | --- |
| 15 µM | B6 |
| 0.93 µM | B7 |
| 9.7 µM | B8 |
| 1.2 µM | B9 |
| 9.7 µM | B10 |
| 0.81 µM | B11 |

Each binder was assayed against T5, FcγRIIa type H (assay: SPR (Biacore), antibody captured, FcγR analyte).
From the text: as §1

| Kd | Binder |
| --- | --- |
| 40 µM | B6 |
| 14 µM | B7 |
| 34 µM | B8 |
| 18 µM | B9 |
| 21 µM | B10 |
| 5.6 µM | B11 |

Each binder was assayed against T3, FcγRIIb (assay: SPR (Biacore), antibody captured, FcγR analyte).
From the text: as §1

| Kd | Binder |
| --- | --- |
| 1.2 µM | B6 |
| 0.051 µM | B7 |
| 0.57 µM | B8 |
| 0.062 µM | B9 |
| 0.61 µM | B10 |
| 0.041 µM | B11 |

These binders were tested against T11, FcγRIIIa type V (human, UniProt P08637 17-208, limits assumed) (assay: SPR (Biacore), antibody captured, FcγR analyte).
T11 construct: SPR analyte; allotype V158 was used here; also called FcγRIIIaV; FcγRIIIa(V)
T11 sequence (P08637 other isoform, or with tags, fused parts or gaps limits assumed): as the sequence (P08637 other isoform, or with tags, fused parts or gaps limits assumed) above
From the text: as §1

| Kd | Binder |
| --- | --- |
| 71 µM | B6 |
| 57 µM | B8 |
| 70 µM | B9 |
| 44 µM | B10 |

These binders were tested against T3, FcγRIIb (assay: ratio of SPR KDs: KD for FcγRIIaH over KD for FcγRIIb).
From the text: (§2) Furthermore, KD(IIaR)/KD(IIb) and KD(IIaH)/KD(IIb) in the table respectively represent the value obtained by dividing the KD value of each variant for FcγRIIaR by the KD value of each variant for FcγRIIb, and the value obtained by dividing the KD value of each variant for FcγRIIaH by the KD value of each variant for FcγRIIb.

| KD(IIaH)/KD(IIb) | Binder |
| --- | --- |
| 33.9 | B6 |
| 59.9 | B8 |
| 191 | B9 |
| 34.7 | B10 |

Each binder was assayed against T3, FcγRIIb (assay: ratio of SPR KDs: KD for FcγRIIaR over KD for FcγRIIb).
From the text: as §2

| KD(IIaR)/KD(IIb) | Binder |
| --- | --- |
| 13 | B6 |
| 17.1 | B8 |
| 18.6 | B9 |
| 16 | B10 |

What follows are binders tested against T2, FcγRIIb (assay: SPR (Biacore), KD of IL6R-B3/IL6R-L divided by KD of the variant).
From the text: as §1

| KD(IIb) of the parent polypeptide/KD(IIb) of altered polypeptide | Binder |
| --- | --- |
| 2.8 fold | B1 |
| 2.6 fold | B2 |
| 2.1 fold | B3 |
| 2.1 fold | B4 |
| 2.1 fold | B5 |

What follows are binders tested against T12, human FcγRIIIa(V) (human, UniProt P08637 17-208, limits assumed) (assay: SPR, antibody captured by Protein L, human FcγR as analyte, pH 7.4, 25 C;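 note: biacore T100 or T200 with Protein L amine-coupled on a CM4 chip, FcγRs diluted in ACES saline with polysorbate 20, buffer-only injection as blank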).
T12 construct: also called hFcgRIIIa(V); allotype V158
T12 sequence (P08637 other isoform, or with tags, fused parts or gaps limits assumed): as above

| BINDING AMOUNT (RU) | Binder |
| --- | --- |
| 39.5 RU | B12 |

The binders below were run against T13, human FcγRIa (human, UniProt P12314 16-292, limits assumed) in the same assay as above.
T13 construct: also called hFcgRIa; hFcgRI
T13 sequence (P12314 16-292 limits assumed): as the sequence (P12314 16-292 limits assumed) above

| BINDING AMOUNT (RU) | Binder |
| --- | --- |
| 227 RU | B12 |

Target: T6, human FcγRIIa(R)
Assay: as above

| BINDING AMOUNT (RU) | Binder |
| --- | --- |
| 9.1 RU | B12 |

Each binder was assayed against T7, human FcγRIIa(H) in the same assay as above.

| BINDING AMOUNT (RU) | Binder |
| --- | --- |
| 6.97 RU | B12 |

Target: T4, FcγRIIa type R
Assay: ratio of SPR KDs; stronger receptor here FcγRIIaR; reference IL6R-B3/IL6R-L (FcγRIIaH)
From the text: as §1

| KD of the stronger of FcγRIIaR/FcγRIIaH binding of the variant / that of the parent polypeptide | Binder |
| --- | --- |
| 19.9 | B6 |
| 1.2 | B7 |
| 12.6 | B8 |
| 1.5 | B9 |
| 12.6 | B10 |
| 1 | B11 |

Source: US20200199241A1 (Chugai, published 2020)
